Results on three molecules are retold here after paper PMC3057995, “Potent Anti-Tumor Effect Generated by a Novel Human Papillomavirus (HPV) Antagonist Peptide Reactivating the pRb/E2F Pathway” (PLoS ONE, 2011).

The test system of one data set is SiHa cells. As for the experimental part: The 5-FAM labeled peptides were used to monitor the cell uptake and intracellular location of the peptide. SiHa cells were seeded on the coverslips in 12-well plates (1×10^5/well) and cultured overnight. The DMEM was replaced with a fresh medium, supplemented with 80 µM 5-FAM labeled peptide. Cells were washed three times with a PBS buffer after 8 h and 24 h of incubation, respectively, and then observed under a fluorescence microscope Leica DMI 6000B. Images were captured with Leica AF6500 software (Leica Mikrosysteme Vertrieb GmbH, Wetzlar, Germany).

The target of data set [1] is T1, His-HPV16E7 fusion protein (human papillomavirus type 16, UniProt P03129 1-98).
T1 construct: source: E. coli BL21, extracted in denaturing conditions, purified (Ni-NTA agarose)
T1 sequence (looked up): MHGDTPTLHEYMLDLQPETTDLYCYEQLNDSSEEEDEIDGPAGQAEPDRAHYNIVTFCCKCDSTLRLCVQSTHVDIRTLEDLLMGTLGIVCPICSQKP
As to the kind of experiment: ELISA. (In general: In an ELISA, binding on a coated surface is turned into a signal by an enzyme label.)

Bridge positions count the residues as written; N and C are the ends. Ends that are not written are not given here. Some results are limits rather than exact numbers.

With `O=C(O)c1ccc2c(c1)C(=O)OC21c2ccc(O)cc2Oc2cc(O)ccc21` [5-Fam], in the data set on SiHa cells, the “cell fluorescence (uptake control)” value is on record as “did not show fluorescence”.
Consider “positive phage clones displaying the peptide PKGLDWC”, for which the inhibitory ratio of HPV16E7 mAb binding at 10^13 CFU/ml in data set [1] was over 50%.

B1: Pep-7 (peptide)
peptide: SACPKGLDWCGG
modifications: disulfide 3-10 (inferred)
notes: also called selected peptide; antagonist peptide; source: synthetic peptide (Chinese Peptide Company), HPLC purified
Regarding B1, the binding result in data set [1] (both partners purified) is given as “binds”.
